# Assay results: US11046988B2, “Process for the modification of a glycoprotein using a β-(1,4)-N-acetylgalactosaminyl transferase or a mutant thereof” (Synaffix B.V., priority 2014, dated 2021)
# B1: TnGalNAcT: truncated Trichoplusia ni β-(1,4)-GalNAcT, amino acids 33-421 of SEQ ID NO: 4 (SEQ ID NO: 8) (protein)
# chain: SPLRTYLYTPLYNATQPTLRNVERLAANWPKKIPSNYIEDSEEYSIKNISLSNHTTRASVVHPPSSITETASKLDKNMTIQDGAFAMISPTPLLITKLMDSIKSYVTTEDGVKKAEAVVTLPLCDSMPPDLGPITLNKTELELEWVEKKFPEVEWGGRYSPPNCTARHRVAIIVPYRDRQQHLAIFLNHMHPFLMKQQIEYGIFIVEQEGNKDFNRAKLMNVGFVESQKLVAEGWQCFVFHDIDLLPLDTRNLYSCPRQPRHMSASIDKLHFKLPYEDIFGGVSAMTLEQFTRVNGFSNKYWGWGGEDDDMSYRLKKINYHIARYKMSIARYAMLDHKKSTPNPKRYQLLSQTSKTFQKDGLSTLEYELVQVVQYHLYTHILVNIDERS
# modifications: TnGalNAcT(33-421)
# What was measured:
# [1] = Coupled glycosyltransferase assay (R&D Systems Glycosyltransferase Activity Kit, malachite green, 620 nm): transfer of F2-GalNAz to GlcNAc; format: biochemical; set-up: Data from the determination of the specific activity: unit not given here; conditions: for Data from the determination of the specific activity: GlcNAc 20 mM, UDP-F2-GalNAz 500 μM, 20 min, room temperature, plate read at 620 nm; for specific activity: UDP-F2-GalNAz 500 μM to GlcNAc 20 mM, 5 mM MgCl2 and 5 mM MnCl2, pH 7.5, linear regression; for transferase activity compared with GalT(Y289L): transfer of F2-GalNAz from UDP-F2-GalNAz (18) to GlcNAc, FIG. 7 / FIG. 8
# From the text: In brief, the glycosyltransferase kit determines the activity of a particular glycosyltransferase by means of a coupled assay that detects the release of liberated UDP upon transfer of the donor sugar (from the sugar-UDP nucleotide) to an acceptor sugar. In more detail, the UDP that is liberated upon transfer of sugar is hydrolyzed by a particular enzyme (CD39L3/rectonucleoside triphosphate diphosphohydrolase-3, also known as NTPDase-3) thereby generating UMP and one equivalent of phosphate (Pi). The latter phosphate in turn is detected by malachite green, which is also added to the mixture. A green color develops in proportion to the amount of inorganic phosphate released and the absorbance of the color at 620 nm is measured as a direct measure of the activity of the glycosyltransferase. In the present case, transfer of F2-GalNAz from the UDP-substrate to GlcNAc on the protein is accompanied by release of UDP, which is hydrolyzed by CD39L3 and the generated phosphate. Preferably, the derived or wild type β-(1,4)-GalNAcT enzyme used in the process according to the invention has at least 30%, 33%, 50%, 75%, 100%, 150%, 200%, or more preferably at least 300% of the UDP-F2-GalNAz transfer activity as compared to the UDP-F2-GalNAz transfer activity of the β-(1,4)-galactosyltransferase mutant enzyme Bos taurus GalT-Y289L (SEQ ID NO: 1), wherein the transfer activity is assessed using the R&D Systems Glycosyltransferase Activity Kit and applying the conditions as indicated in detail in Example 18 and using equal amounts of the enzyme to be tested and β-(1,4)-galactosyltransferase mutant enzyme Bos taurus GalT-Y289L (SEQ ID NO: 1).
# Specific activity of enzymes was determined by a coupled glycosyltransferase procedure as described by Wu et al. in Glycobiology 2010, 21, 723-733, incorporated by reference, and commercially available as a kit from R&D system.
# In short, a glycosyltransferase reaction was carried out in 50 μL of reaction buffer (25 mM Tris, 150 mM NaCl, 5 mM MgCl2 and 5 mM MnCl2, pH 7.5) in a 96-well plate at room temperature for 20 min. To determine the kinetic parameters of a glycosyltransferase, multiple reactions with varying amounts of the enzyme were carried out simultaneously (0.01, 0.02, 0.04, 0.06, 0.08, 0.10 and 0.12 μg of enzyme) in the presence of fixed amounts of all other components (GlcNAc: 20 mM, UDP-F2-GalNAz: 500 μM), including the coupling phosphatase 1 (ENTPD3/CD39L3) (2.5 μL of 20 ng/μL solution). A well containing all components except for the enzyme served as a blank control. The reactions were initiated by adding the substrates and phosphatase to the enzyme and terminated by the addition of 30 μL of Malachite reagent A and 100 μL of water to each well. The color was developed by the addition of 30 μL of Malachite reagent B to each well followed by gentle mixing and incubation at room temperature for 20 min. Following color development, the plate was read at 620 nm with a multi-well plate reader. A phosphate standard curve was also performed to determine the conversion factor between the absorbance and the inorganic phosphate contents. Preparation of UDP-F2-GalNAz is described in Example 13.
# The specific activity of the GalNAcTs described herein were compared to GalT(Y289L), an enzyme known to transfer UDP-GalNAz as previously disclosed in WO 2007/095506 and WO 2008/029281 (both Invitrogen Corporation).
# A graph depicting the conversion (in pmol/min/m) plotted against the amount of enzyme is shown in FIG. 7 (for Table 1) and FIG. 8 (for Table 2). From these plots specific activities were calculated by linear regression. […]
# [2] = tested on: GlcNAc2-Man3-GlcNAc-GlcNAc(Fuc)-substituted trastuzumab (formula 27); test: Glycosyltransfer of GalNAz to galactosidase-trimmed trastuzumab, MS analysis; format: biochemical; conditions: UDP-GalNAz 0.5 mM, CeGalNAcT 0.1 mg/mL, 10 mM MnCl2, pH 8.0, 16 hours, 22° C.
# Experimental: Trastuzumab (10 mg/mL) in 50 mM sodium phosphate pH 6.0 and β(1,4)-galactosidase (3 mU/mg IgG) from Streptococcus pneumoniae (commercially available from Calbiochem) was stirred for 16 hrs at 37° C. prior to analysis by MS. A single major heavy chain product was observed corresponding to trastuzumab with a GlcNAc2-Man3-GlcNAc-GlcNAc(Fuc)-substituted heavy chain (c=d=0, 50592 Da).
# A solution of 50 μg (modified) IgG, 1 M Tris-HCl pH 8.0, 1 mM EDTA and 30 mM DTT with a total volume of approximately 70 μL was incubated for 20 minutes at 37° C. to reduce the disulfide bridges allowing to analyze both light and heavy chain. If present, azide-functionalities are reduced to amines under these conditions. Reduced samples were washed trice with milliQ using an Amicon Ultra-0.5, Ultracel-10 Membrane (Millipore) and concentrated to 10 μM (modified) IgG. The reduced IgG was analyzed by electrospray ionization time-of-flight (ESI-TOF) on a JEOL AccuTOF. Deconvoluted spectra were obtained using Magtran software.
# Trastuzumab obtained after trimming with galactosidase (as in Formula 27, preparation described in Example 24) was subjected to the glycosyltransfer protocol with UDP-GalNAz and GalNAcT.
Molecule,Data from the determination of the specific activity ([1]; 0.01 μg enzyme),Data from the determination of the specific activity ([1]; 0.02 μg enzyme),Data from the determination of the specific activity ([1]; 0.04 μg enzyme),Data from the determination of the specific activity ([1]; 0.06 μg enzyme),Data from the determination of the specific activity ([1]; 0.08 μg enzyme),Data from the determination of the specific activity ([1]; 0.1 μg enzyme),Data from the determination of the specific activity ([1]; 0.12 μg enzyme),specific activity [1],"activity for transfer of an azido-GalNAc derivative, times higher than GalT(Y289L) ([1]; relative to GalT(Y289L), FIG. 7)",transferase activity compared with GalT(Y289L) [1],conversion into (GalNAz-GlcNAc)2-Man3-GlcNAc-GlcNAc(Fuc)-substituted trastuzumab [2],major heavy chain product ((GalNAz-GlcNAc)2-Man3-GlcNAc-GlcNAc(Fuc)-substituted) [2]
"CeGalNAcT: truncated Caenorhabditis elegans β-(1,4)-GalNAcT, amino acids 30-383 of SEQ ID NO: 2 (SEQ ID NO: 6)",0.031,0.066,0.14,0.162,0.265,0.301,0.348,426 pmol/min/µg,10 times,significantly higher,complete conversion,~90 % of the total heavy chain products
B1,0,0.007,0.025,0.051,0.073,0.083,0.102,140 pmol/min/µg,,significantly higher,,
